Measurements: patent publication US20150258192A1, “COMPOSITIONS AND METHODS FOR PREVENTING OR TREATING CHRONIC LUNG ALLOGRAFT DYSFUNCTION (CLAD) AND IDIOPATHIC PULMONARY FIBROSIS (IPF)” (priority 2014, published 2015)
No end group written: not given here.

How the values were obtained:
Assay in all cases: Kinase Profiling Assay
Type in all cases: biochemical
Details in all cases: peptide 100 μM
WNK2(h) = WNK2(h) (Homo sapiens, UniProt Q9Y3S1)
Protocol: (§1) Every kinase activity measurement was conducted in duplicate.
(§2) Specifically, in these assays, a positively charged substrate is phosphorylated with a radiolabeled phosphate group from an ATP if the kinase is not inhibited by an inhibitor peptide. The positively charged substrate then is attracted to a negatively charged filter membrane, quantified with a scintillation counter, and compared to a 100% activity control.
(§3) In addition to determining the IC50 of the compound, the specificity of MK2 inhibitory peptides was assessed by examining activities of all 266 human kinases available for testing in the Millipore kinase profiling service (Table 1).

DDR2(h) = molecular target: T1, DDR2(h) (Homo sapiens, UniProt Q16832)
T1 sequence (Q16832 22-855): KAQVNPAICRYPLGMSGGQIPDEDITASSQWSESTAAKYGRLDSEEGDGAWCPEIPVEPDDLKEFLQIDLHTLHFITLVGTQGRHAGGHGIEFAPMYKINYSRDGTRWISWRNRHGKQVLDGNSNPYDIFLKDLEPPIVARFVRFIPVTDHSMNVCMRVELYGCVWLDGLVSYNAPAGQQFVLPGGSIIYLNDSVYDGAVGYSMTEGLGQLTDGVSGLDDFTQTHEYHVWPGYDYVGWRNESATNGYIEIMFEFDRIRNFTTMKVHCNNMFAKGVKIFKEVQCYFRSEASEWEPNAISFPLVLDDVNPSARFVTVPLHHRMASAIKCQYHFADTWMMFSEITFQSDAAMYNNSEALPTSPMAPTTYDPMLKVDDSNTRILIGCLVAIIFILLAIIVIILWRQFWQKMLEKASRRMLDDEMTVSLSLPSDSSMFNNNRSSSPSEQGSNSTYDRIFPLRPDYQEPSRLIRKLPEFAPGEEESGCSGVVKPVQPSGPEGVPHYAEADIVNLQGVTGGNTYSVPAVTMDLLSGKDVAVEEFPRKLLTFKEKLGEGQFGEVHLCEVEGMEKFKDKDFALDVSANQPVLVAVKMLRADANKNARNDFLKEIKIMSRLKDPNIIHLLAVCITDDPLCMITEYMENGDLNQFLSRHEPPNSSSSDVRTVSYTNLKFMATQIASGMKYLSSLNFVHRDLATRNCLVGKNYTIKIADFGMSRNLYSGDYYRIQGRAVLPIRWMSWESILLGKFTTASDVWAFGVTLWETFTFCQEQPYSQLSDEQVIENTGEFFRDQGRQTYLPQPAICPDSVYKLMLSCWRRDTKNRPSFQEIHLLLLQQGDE
Protocol: as §1, §2, §3

Rsk1(h) = Rsk1(h) (Homo sapiens, UniProt Q15418)
Protocol: as §1, §2, §3

NEK6(h) = molecular target: T2, NEK6(h) (Homo sapiens, UniProt Q9HC98)
T2 construct: purchased Millipore
Protocol: as §1, §2, §3

ALK4(h) = molecular target: T3, ALK4(h) (Homo sapiens, UniProt P36896)
T3 sequence (P36896 24-505): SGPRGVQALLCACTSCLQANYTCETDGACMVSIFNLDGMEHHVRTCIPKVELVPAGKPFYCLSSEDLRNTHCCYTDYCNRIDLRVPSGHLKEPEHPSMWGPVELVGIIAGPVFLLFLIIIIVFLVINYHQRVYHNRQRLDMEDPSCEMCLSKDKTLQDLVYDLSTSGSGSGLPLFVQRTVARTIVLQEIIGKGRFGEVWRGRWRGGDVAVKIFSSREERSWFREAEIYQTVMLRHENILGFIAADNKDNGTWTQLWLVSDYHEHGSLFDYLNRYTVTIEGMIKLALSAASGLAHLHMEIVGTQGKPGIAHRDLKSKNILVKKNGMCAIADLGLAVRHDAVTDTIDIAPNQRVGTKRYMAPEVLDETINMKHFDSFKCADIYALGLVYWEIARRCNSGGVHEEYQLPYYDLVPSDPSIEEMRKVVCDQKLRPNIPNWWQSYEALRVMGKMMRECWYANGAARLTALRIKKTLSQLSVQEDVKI
Protocol: as §1, §2, §3

mTOR/FKBP12(h) = molecular target: T4, mTOR/FKBP12(h) (Homo sapiens, UniProt P42345)
T4 construct: purchased Millipore
Protocol: as §1, §2, §3

WNK3(h) = WNK3(h) (Homo sapiens, UniProt Q9BYP7)
Protocol: as §1, §2, §3

JNK1α1(h) = molecular target: T5, JNK1α1(h) (Homo sapiens, UniProt P45983)
T5 construct: purchased Millipore
Protocol: as §1, §2, §3

PKD2(h) = molecular target: T6, PKD2(h) (Homo sapiens, UniProt Q9BZL6)
T6 sequence (Q9BZL6 1-878): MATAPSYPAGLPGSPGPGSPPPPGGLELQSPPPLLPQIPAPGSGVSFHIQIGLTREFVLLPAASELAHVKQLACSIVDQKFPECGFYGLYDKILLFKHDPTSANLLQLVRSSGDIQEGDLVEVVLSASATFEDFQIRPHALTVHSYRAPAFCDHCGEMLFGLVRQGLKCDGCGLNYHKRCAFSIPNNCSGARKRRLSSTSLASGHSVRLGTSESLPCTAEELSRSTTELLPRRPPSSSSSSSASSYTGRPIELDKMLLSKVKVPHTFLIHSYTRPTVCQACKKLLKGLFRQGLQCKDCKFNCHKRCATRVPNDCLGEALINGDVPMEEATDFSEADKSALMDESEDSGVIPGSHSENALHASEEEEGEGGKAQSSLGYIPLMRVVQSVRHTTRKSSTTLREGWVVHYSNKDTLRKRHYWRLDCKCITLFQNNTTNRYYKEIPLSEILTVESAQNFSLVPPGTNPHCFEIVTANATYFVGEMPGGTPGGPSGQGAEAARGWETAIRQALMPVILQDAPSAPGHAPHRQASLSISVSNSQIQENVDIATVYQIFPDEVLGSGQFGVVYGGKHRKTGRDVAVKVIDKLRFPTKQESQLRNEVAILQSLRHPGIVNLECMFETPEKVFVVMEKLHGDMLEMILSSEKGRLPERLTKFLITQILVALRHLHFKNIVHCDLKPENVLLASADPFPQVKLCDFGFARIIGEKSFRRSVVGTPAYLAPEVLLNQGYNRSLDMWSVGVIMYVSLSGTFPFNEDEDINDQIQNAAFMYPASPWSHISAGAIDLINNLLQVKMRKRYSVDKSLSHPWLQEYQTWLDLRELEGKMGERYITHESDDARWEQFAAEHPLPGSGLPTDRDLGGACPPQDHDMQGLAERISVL
Protocol: as §1, §2, §3

SRPK1(h) = molecular target: T7, SRPK1(h) (Homo sapiens, UniProt Q96SB4)
T7 construct: purchased Millipore
Protocol: as §1, §2, §3

MRCKα(h) = molecular target: T8, MRCKα(h) (Homo sapiens, UniProt Q5VT25)
T8 construct: purchased Millipore
Protocol: as §1, §2, §3

T2 sequence (Q9HC98 whole entry): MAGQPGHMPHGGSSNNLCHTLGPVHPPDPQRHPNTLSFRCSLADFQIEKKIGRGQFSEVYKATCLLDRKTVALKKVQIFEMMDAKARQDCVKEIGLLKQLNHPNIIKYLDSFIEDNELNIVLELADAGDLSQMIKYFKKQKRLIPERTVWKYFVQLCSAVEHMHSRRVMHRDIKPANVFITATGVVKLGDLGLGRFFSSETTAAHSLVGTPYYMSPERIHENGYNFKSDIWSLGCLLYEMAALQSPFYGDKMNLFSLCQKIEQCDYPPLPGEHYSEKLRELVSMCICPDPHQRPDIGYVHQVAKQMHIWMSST
Sequence of Rsk1(h) (Q15418 whole entry): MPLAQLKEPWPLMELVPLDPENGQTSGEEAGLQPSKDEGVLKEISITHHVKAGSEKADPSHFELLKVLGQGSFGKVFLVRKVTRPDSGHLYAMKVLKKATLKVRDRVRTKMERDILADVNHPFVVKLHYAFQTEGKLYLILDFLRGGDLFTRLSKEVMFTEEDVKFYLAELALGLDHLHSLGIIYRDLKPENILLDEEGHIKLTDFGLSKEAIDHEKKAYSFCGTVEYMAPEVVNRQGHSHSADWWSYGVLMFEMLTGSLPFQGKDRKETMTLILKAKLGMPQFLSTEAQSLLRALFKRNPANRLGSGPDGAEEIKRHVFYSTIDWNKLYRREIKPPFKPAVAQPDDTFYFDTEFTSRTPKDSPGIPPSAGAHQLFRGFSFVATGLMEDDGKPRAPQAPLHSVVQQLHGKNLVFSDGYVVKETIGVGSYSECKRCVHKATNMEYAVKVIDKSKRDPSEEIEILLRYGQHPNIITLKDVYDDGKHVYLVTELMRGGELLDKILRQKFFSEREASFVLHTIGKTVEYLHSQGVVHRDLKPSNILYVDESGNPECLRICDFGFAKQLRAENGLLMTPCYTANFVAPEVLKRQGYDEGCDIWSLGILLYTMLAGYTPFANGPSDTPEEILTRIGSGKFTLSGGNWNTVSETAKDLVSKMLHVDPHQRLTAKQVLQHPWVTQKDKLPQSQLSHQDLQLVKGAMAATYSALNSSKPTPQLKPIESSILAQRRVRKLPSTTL
T4 sequence (P42345 1362-2549 limits assumed): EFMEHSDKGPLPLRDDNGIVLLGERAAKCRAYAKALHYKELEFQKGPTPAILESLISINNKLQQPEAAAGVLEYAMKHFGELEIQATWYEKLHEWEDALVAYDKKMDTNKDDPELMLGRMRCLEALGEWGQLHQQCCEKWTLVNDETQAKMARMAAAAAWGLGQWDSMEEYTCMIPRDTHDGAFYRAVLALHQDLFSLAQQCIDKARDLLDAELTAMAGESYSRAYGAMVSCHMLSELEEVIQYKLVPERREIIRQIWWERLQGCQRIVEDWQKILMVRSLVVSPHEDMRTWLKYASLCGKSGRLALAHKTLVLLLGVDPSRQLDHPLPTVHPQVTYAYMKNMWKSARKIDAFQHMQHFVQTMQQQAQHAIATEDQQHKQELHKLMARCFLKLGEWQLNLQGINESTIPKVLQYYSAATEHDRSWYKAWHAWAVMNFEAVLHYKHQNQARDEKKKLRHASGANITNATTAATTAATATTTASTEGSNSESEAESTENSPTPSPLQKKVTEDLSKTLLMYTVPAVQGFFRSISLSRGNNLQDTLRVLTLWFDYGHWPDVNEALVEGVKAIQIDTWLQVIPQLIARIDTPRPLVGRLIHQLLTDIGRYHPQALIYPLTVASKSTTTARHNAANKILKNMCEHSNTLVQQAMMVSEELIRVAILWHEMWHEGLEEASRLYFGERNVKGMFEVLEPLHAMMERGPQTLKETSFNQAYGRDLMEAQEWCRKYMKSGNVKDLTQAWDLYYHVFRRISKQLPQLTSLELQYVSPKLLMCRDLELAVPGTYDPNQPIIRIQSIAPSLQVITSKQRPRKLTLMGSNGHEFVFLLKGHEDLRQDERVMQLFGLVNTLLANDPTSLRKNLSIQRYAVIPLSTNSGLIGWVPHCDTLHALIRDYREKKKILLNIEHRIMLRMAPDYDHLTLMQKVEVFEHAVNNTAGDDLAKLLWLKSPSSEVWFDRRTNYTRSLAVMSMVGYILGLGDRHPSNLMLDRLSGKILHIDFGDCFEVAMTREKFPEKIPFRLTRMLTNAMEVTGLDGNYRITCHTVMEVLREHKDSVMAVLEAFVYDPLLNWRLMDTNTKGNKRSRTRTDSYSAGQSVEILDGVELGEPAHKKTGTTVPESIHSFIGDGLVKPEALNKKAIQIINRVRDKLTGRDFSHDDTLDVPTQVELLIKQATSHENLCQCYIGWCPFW
Sequence of WNK2(h) (Q9Y3S1 whole entry): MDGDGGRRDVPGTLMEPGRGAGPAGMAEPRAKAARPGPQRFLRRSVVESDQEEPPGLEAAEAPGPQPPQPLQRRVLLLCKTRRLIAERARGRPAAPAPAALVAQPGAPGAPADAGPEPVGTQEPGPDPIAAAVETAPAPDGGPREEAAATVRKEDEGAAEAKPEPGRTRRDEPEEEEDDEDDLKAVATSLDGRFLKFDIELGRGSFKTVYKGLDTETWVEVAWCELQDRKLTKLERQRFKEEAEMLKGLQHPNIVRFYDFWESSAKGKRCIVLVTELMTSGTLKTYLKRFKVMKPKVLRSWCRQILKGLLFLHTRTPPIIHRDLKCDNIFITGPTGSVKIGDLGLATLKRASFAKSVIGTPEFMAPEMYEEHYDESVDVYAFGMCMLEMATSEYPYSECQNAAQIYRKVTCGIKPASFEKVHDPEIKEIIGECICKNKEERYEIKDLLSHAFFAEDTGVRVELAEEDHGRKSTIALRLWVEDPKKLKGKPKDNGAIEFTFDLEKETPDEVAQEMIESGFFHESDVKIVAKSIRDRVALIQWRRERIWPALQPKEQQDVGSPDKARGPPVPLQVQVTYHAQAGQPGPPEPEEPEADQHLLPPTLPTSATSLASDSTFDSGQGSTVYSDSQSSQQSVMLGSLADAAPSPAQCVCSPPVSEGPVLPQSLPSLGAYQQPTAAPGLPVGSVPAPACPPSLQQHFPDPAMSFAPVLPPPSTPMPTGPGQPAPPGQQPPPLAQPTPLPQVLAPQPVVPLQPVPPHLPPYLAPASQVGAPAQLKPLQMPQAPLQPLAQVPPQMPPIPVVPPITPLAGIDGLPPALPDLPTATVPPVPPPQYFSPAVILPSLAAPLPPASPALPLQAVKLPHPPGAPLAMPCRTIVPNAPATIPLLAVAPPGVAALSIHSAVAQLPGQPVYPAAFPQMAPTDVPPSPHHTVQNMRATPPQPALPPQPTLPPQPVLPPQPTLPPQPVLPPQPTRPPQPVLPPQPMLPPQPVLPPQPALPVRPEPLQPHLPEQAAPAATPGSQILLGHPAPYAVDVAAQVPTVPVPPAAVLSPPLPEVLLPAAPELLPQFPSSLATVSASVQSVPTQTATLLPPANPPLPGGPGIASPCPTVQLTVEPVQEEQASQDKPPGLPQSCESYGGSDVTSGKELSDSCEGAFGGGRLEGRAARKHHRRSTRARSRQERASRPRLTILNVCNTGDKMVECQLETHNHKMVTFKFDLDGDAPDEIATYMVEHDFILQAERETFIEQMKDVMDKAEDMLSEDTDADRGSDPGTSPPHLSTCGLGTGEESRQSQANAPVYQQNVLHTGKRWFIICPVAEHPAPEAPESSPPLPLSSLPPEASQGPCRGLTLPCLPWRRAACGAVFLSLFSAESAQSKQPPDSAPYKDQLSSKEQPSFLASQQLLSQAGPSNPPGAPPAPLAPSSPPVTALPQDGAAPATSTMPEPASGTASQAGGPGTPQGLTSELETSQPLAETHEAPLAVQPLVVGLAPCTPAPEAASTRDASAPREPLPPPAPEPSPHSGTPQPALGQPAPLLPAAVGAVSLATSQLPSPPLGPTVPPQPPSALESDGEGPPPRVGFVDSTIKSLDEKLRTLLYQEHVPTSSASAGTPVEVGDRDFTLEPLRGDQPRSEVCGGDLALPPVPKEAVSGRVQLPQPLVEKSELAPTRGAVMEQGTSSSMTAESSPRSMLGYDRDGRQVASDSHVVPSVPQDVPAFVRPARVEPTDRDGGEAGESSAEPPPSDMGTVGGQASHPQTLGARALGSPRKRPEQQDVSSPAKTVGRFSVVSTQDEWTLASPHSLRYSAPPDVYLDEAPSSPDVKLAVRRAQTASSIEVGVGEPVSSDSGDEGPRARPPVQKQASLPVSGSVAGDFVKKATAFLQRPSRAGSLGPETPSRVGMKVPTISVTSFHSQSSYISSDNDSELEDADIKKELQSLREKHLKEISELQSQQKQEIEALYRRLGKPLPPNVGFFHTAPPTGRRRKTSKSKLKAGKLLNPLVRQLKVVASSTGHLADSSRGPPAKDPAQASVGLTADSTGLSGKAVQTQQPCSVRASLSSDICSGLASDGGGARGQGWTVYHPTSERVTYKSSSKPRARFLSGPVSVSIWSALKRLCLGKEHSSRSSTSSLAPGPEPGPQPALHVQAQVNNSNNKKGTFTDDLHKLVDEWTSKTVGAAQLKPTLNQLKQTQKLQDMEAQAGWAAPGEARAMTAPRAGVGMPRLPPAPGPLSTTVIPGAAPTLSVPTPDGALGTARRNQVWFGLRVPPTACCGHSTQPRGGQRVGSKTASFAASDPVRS
T5 sequence (P45983 1-384 isoform P45983-2): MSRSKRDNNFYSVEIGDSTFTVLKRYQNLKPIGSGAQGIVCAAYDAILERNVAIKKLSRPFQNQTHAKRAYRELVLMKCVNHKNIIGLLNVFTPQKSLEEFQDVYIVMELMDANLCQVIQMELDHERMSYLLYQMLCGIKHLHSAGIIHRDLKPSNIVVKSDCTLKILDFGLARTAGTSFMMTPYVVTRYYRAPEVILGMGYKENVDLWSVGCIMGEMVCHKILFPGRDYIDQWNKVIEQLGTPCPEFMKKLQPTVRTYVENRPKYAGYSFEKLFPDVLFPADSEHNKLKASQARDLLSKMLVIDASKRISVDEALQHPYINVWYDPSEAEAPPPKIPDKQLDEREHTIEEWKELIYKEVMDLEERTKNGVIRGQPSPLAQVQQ

Sequence	% activity (WNK2(h)) [%]	% activity (DDR2(h)) [%]	% activity (Rsk1(h)) [%]	% activity (NEK6(h)) [%]	% activity (ALK4(h)) [%]	% activity (mTOR/FKBP12(h)) [%]	% activity (WNK3(h)) [%]	% activity (JNK1α1(h)) [%]	% activity (PKD2(h)) [%]	% activity (SRPK1(h)) [%]	% activity (MRCKα(h)) [%]
FAKLAARLYRKALARQLGVAA [MMI-0300]	64	94	46	82	140	145	77	97	33	90	–
HRRIKAWLKKIKALARQLGVAA (Mammal) [MMI-0500]	8	79	34	49	81	140	9	–	10	80	5
KAFAKLAARLYRKALARQLGVAA [MMI-0400]	54	95	54	85	130	125	74	98	25	96	97
YARAAARQARAKALARQLGVAA [MMI-0100]	95	–	86	–	124	–	100	91	84	69	98
YARAAARQARAKALNRQLGVA (Mammal) [MMI-0200]	94	–	–	98	152	118	97	–	78	93	–
